According to US20110318339A1 (FABRUS, published 2011):
Values belong to the binder of their own block, whether it stands above or below them.

Tests used:
[1] = target: T1, full-length human DLL4 expressed on the surface of CHO cells (human, UniProt Q9NR61 26-685); experiment: flow cytometry, 250 nM biotinylated Notch-Fc on CHO-DLL4 cells, no Fab (0 nM control)
T1 construct: also called CHO-DLL4; DLL4-expressing CHO cells
Description: (§1) Streptavidin-PE was used as a detection molecule.
(§2) Fab was 5-fold serially diluted in 2% BSA/PBS from a starting concentration of 50 nM. […] PE-labeled streptavidin (Cat# 21627, Pierce-Thermo Scientific) was then added to a final dilution of 1:5 followed by incubation for 10 minutes at room temperature. The cells were then washed twice in 2% BSA/PBS and analyzed by flow cytometry on a BD FACSAria.

[2] = target: T1, full-length human DLL4 expressed on the …; experiment: flow cytometry competition, 250 nM biotinylated Notch-Fc as competitor, Fab 2 nM
Description: as §1, §2

[3] = target: T2, recombinant human DLL4 (Cat# 1506-D4/CF, R&D Systems) (human, UniProt Q9NR61 27-529); experiment: ELISA, hDLL4 coated 0.5 ng/ul, Fab 6.25 nM
T2 construct: Bought protein; also called hDLL4; h DLL4
Description: (§3) The plate was blocked by adding 1% BSA in Tris-buffered Saline Tween (TBST) and incubating for 1 hour at room temperature followed by washing 2 times with 150 μl TBST. A Fab antibody was serially diluted in 1% BSA in PBS. A 50 μl aliquot of each serial dilution was added, in triplicate, to each well and the plate was incubated for 1 hour at room temperature followed by washing 2 times with TBST. 50 μl of either goat anti-human kappa HRP conjugated secondary antibody (Cat # A7164-1 mL, Sigma-Aldrich) or goat anti-human lambda HRP conjugated secondary antibody (Cat # L1645-1 ml, Sigma-Aldrich), diluted 1:1000 in 1% BSA in PBS, was added to each well and the plate was incubated for 30 minutes at room temperature followed by washing 3 times with 200 μl TBST. Finally, 50 μl TMB one-component reagent (Cat # TMBW-1000-01, BioFax) was added and allowed to develop for 2 minutes at room temperature. The reaction was immediately halted by the addition of 50 μl 0.5M H₂SO₄ and the absorbance at 450 nm was measured using an ELISA plate reader.

[4] = target: T2, recombinant human DLL4 (Cat# …); experiment: ELISA, hDLL4 coated 0.5 ng/ul, Fab 25.00 nM
Description: as §3

[5] = target: T1, full-length human DLL4 expressed on the …; experiment: flow cytometry competition, 250 nM biotinylated Notch-Fc as competitor, Fab 10 nM
Description: as §1, §2

[6] = target: T2, recombinant human DLL4 (Cat# …); experiment: ELISA, hDLL4 coated 0.5 ng/ul, Fab 100.00 nM
Description: as §3

[7] = target: T1, full-length human DLL4 expressed on the …; experiment: flow cytometry competition, 250 nM biotinylated Notch-Fc as competitor, Fab 50 nM
Description: as §1, §2

[8] = target: T2, recombinant human DLL4 (Cat# …); experiment: ELISA, hDLL4 coated 0.5 ng/ul, Fab 3.13 nM
Description: as §3

[9] = target: T2, recombinant human DLL4 (Cat# …); experiment: ELISA, hDLL4 coated 0.5 ng/ul, Fab 1.56 nM
Description: as §3

[10] = target: T2, recombinant human DLL4 (Cat# …); experiment: ELISA, hDLL4 coated 0.5 ng/ul, Fab 50.00 nM
Description: as §3

[11] = target: T2, recombinant human DLL4 (Cat# …); experiment: ELISA, hDLL4 coated 0.5 ng/ul, Fab 0.78 nM
Description: as §3

[12] = target: T2, recombinant human DLL4 (Cat# …); experiment: ELISA, hDLL4 coated 0.5 ng/ul, Fab 12.50 nM
Description: as §3

[13] = target: T3, Recombinant Human DLL4 (Cat# 1506-D4/CF, R&D Systems) (human, UniProt Q9NR61 27-529); experiment: ELISA, hDLL4 coated, estimated from dose-dependent binding
T3 construct: Bought protein; also called rHuman DLL4; hDLL4

[14] = target: full-length human DLL4 expressed on the surface of CHO cells (human, UniProt Q9NR61 27-685); experiment: cell-based or functional assay
[15] = target: T4, recombinant mouse DLL4 (Cat# 1389-D4-050/CF, R&D Systems) (mouse, UniProt Q9JI71 28-525); experiment: SPR, mDLL4 on chip, row 'Surface 1' (third)
T4 construct: Bought protein; also called mDLL4
T4 sequence (Q9JI71 28-525 limits assumed): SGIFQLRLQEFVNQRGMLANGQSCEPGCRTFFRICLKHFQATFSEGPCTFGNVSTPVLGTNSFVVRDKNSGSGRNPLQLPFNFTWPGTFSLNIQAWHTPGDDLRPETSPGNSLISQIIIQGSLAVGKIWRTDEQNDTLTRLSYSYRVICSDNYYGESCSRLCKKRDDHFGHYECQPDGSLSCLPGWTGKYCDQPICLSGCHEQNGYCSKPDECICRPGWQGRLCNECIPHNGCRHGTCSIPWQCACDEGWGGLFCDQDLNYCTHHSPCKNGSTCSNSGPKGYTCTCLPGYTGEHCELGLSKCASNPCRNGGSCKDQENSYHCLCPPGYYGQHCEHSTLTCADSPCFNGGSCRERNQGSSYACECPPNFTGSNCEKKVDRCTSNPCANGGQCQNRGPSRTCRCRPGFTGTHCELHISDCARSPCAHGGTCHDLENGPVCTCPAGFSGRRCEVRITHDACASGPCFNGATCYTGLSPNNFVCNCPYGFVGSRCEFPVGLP

[16] = target: T4, recombinant mouse DLL4 (Cat# …); experiment: SPR, mDLL4 on chip, row 'Surface 1' (first)
[17] = target: T5, recombinant human DLL4 (Cat# 1506-D4/CF, R&D Systems) (human, UniProt Q9NR61 27-529); experiment: ELISA, DLL4 coated, Fab 20 nM
T5 construct: Bought protein; also called hDLL4; rHuman DLL4
Method in brief: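 Colorimetric ELISA: HRP goat anti-human kappa or lambda (1:1000) detects Fab bound during a 1 h room-temperature incubation of serial dilutions; TMB develops 2 min before 0.5M H₂SO₄ stop and 450 nm read.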

[18] = target: T4, recombinant mouse DLL4 (Cat# …); experiment: SPR, mDLL4 on chip, average of three surfaces
[19] = target: T5, recombinant human DLL4 (Cat# …); experiment: ELISA, DLL4 coated, Fab 0.74 nM
Description: as §3

[20] = target: T5, recombinant human DLL4 (Cat# …); experiment: ELISA, DLL4 coated, Fab 2.22 nM
Description: as §3

[21] = target: T4, recombinant mouse DLL4 (Cat# …); experiment: SPR, mDLL4 on chip, row 'Surface 1' (second)
[22] = target: T5, recombinant human DLL4 (Cat# …); experiment: ELISA, DLL4 coated, Fab 6.67 nM
Description: as §3

[23] = target: T5, recombinant human DLL4 (Cat# …); experiment: SPR (ProteOn), hDLL4 amine-coupled on chip
Method in brief: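 Binding constants came from global fits of response data per surface. Three densities of amine-immobilised DLL4 were used, and Fabs started at 1 μM with 3-fold dilutions. Running buffer was HEPES 10 mM pH 7.4, NaCl 150 mM, Tween-20 0.01%, BSA 0.1 mg/ml at 25° C on a GLM chip.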

[24] = target: T3, Recombinant Human DLL4 (Cat# …); experiment: ELISA, DLL4 coated

signal of Notch-Fc bound to CHO-DLL4 (streptavidin-PE) [1]: 531
B1: biotinylated Notch-Fc (rHuman Notch-1/Fc Chimera, cat# 3647-TK-050, R&D Systems) (Fc fusion)
chain: ARGPRCSQPGETCLNGGKCEAANGTEACVCGGAFVGPRCQDPNPCLSTPCKNAGTCHVVDRRGVADYACSCALGFSGPLCLTPLDNACLTNPCRNGGTCDLLTLTEYKCRCPPGWSGKSCQQADPCASNPCANGGQCLPFEASYICHCPPSFHGPTCRQDVNECGQKPGLCRHGGTCHNEVGSYRCVCRATHTGPNCERPYVPCSPSPCQNGGTCRPTGDVTHECACLPGFTGQNCEENIDDCPGNNCKNGGACVDGVNTYNCRCPPEWTGQYCTEDVDECQLMPNACQNGGTCHNTHGGYNCVCVNGWTGEDCSENIDDCASAACFHGATCHDRVASFYCECPHGRTGLLCHLNDACISNPCNEGSNCDTNPVNGKAICTCPSGYTGPACSQDVDECSLGANPCEHAGKCINTLGSFECQCLQGYTGPRCEIDVNECVSNPCQNDATCLDQIGEFQCICMPGYEGVHCEVNTDECASSPCLHNGRCLDKINEFQCECPTGFTGHLCQ
modifications: biotinylated with EZ-Link NHS-Biotin Reagent (sites not given)
notes: Bought Notch-1/Fc chimera; Fc part of the bought chimera not given

IC50, Notch-activation (luciferase reporter), T98G cells with CHO-DLL4 [14]: ~6 nM | fold efficiency against Fab H:APFF VLTH & L:NDH LS, Notch-activation (luciferase reporter) [14]: 30 fold
B4: IgG H:APFF VLTH & L:NDH LS (antibody, V domains shown)
VH: QVQLVQSGAEVKKPGASVKVSCKASGYTFTSYYMHWVRQAPGQGLEWMGIGLPTGHSTSYAQKFQGRVTMTRDTSTSTVYMELSSLRSEDTAVYYCAREEYAPFSAEYFQFWGQGTLVTVSS
VL: EIVLTQSPATLSLSPGERATLSCRASQNVDHYLAWYQQKPGQAPRLLIYDALNRSTGIPARFSGSGSGTDFTLTISSLEPEDFAVYYCQQRSNWPPWTFGQGTKVEIKR

The next lines start with the binder.

B2: Fab VH5-51_IGHD5-18*01>3_IGHJ4*01 G100K/G104T G24T/S28R/G35V (H:KT TRV) & V3-4_IGLJ1*01 (Fab, V domains shown)
VH: EVQLVQSGAEVKKPGESLKISCKTSGYRFTSYWIVWVRQMPGKGLEWMGIIYPGDSDTRYSPSFQGQVTISADKSISTAYLQWSSLKASDTAMYYCARRKYSYTYDYFDYWGQGTLVTVSS
VL: QTVVTQEPSFSVSPGGTVTLTCGLSSGSVSTSYYPSWYQQTPGQAPRTLIYSTNTRSSGVPDRFSGSILGNKAALTITGAQADDESDYYCVLYMGSGISYVFGTGTKVTVL
notes: Tested as Fab from E. coli (Plasmid A: CH1, His6, Flag; Plasmid E: CL lambda); also called H:KT TRV & L:wt
signal of Notch-Fc bound to CHO-DLL4 (streptavidin-PE) [2]: 448 | ELISA absorbance at 450 nm [3]: 0.31 A450 | ELISA absorbance at 450 nm [4]: 0.6 A450 | signal of Notch-Fc bound to CHO-DLL4 (streptavidin-PE) [5]: 244 | ELISA absorbance at 450 nm [6]: 1.45 A450 | signal of Notch-Fc bound to CHO-DLL4 (streptavidin-PE) [7]: 141 | ELISA absorbance at 450 nm [8]: 0.187 A450 | ELISA absorbance at 450 nm [9]: 0.183 A450 | ELISA absorbance at 450 nm [10]: 0.976 A450 | ELISA absorbance at 450 nm [11]: 0.143 A450 | ELISA absorbance at 450 nm [12]: 0.389 A450

B3: Fab VH5-51_IGHD5-18*01>3_IGHJ4*01 H:KT TRV & V3-4_IGLJ1*01 (Fab, V domains shown)
VH: EVQLVQSGAEVKKPGESLKISCKTSGYRFTSYWIVWVRQMPGKGLEWMGIIYPGDSDTRYSPSFQGQVTISADKSISTAYLQWSSLKASDTAMYYCARRKYSYTYDYFDYWGQGTLVTVSS
VL: QTVVTQEPSFSVSPGGTVTLTCGLSSGSVSTSYYPSWYQQTPGQAPRTLIYSTNTRSSGVPDRFSGSILGNKAALTITGAQADDESDYYCVLYMGSGISYVFGTGTKVTVL
notes: Fab, lambda light chain; also called H:KT TRV & L:wt; G100K/G104T G24T/S28R/G35V
Kd [13]: ~50 nM

B5: Fab VH1-46_IGHD6-6*01_IGHJ1*01 S102A/S103P/S104F/H111F I51V/N52L/S54T/G56H & L6_IGKJ1*01 S28N/S30D/S31H S52L/A55S (Fab, V domains shown)
VH: QVQLVQSGAEVKKPGASVKVSCKASGYTFTSYYMHWVRQAPGQGLEWMGIVLPTGHSTSYAQKFQGRVTMTRDTSTSTVYMELSSLRSEDTAVYYCAREEYAPFSAEYFQFWGQGTLVTVSS
VL: EIVLTQSPATLSLSPGERATLSCRASQNVDHYLAWYQQKPGQAPRLLIYDALNRSTGIPARFSGSGSGTDFTLTISSLEPEDFAVYYCQQRSNWPPWTFGQGTKVEIKR
notes: Fab made in E. coli: VH on CH1 with His6 and Flag tags (Plasmid A), VL on kappa CL (Plasmid C); also called H: APFF VLTH & L: NDH LS
Kd [15]: 10.9 nM | koff [15]: 0.00188 s⁻¹ | kon [15]: 173000 M⁻¹ s⁻¹ | Kd [16]: 7.3 nM | koff [16]: 0.0021 s⁻¹ | kon [16]: 287000 M⁻¹ s⁻¹ | ELISA absorbance at 450 nm [17]: 0.91 A450 | Kd [18]: 9.7 nM | koff [18]: 0.00192 s⁻¹ | kon [18]: 208000 M⁻¹ s⁻¹ | ELISA absorbance at 450 nm [19]: 0.263 A450 | ELISA absorbance at 450 nm [20]: 0.523 A450 | Kd [21]: 10.8 nM | koff [21]: 0.00178 s⁻¹ | kon [21]: 165000 M⁻¹ s⁻¹ | ELISA absorbance at 450 nm [22]: 0.747 A450 | Kd [23]: 1.7 nM | koff [23]: 0.00109 s⁻¹ | kon [23]: 684000 M⁻¹ s⁻¹

B6: Fab H:APFF VLTH & L:NDH (Fab, V domains shown)
VH: QVQLVQSGAEVKKPGASVKVSCKASGYTFTSYYMHWVRQAPGQGLEWMGIVLPTGHSTSYAQKFQGRVTMTRDTSTSTVYMELSSLRSEDTAVYYCAREEYAPFSAEYFQFWGQGTLVTVSS
VL: EIVLTQSPATLSLSPGERATLSCRASQNVDHYLAWYQQKPGQAPRLLIYDASNRATGIPARFSGSGSGTDFTLTISSLEPEDFAVYYCQQRSNWPPWTFGQGTKVEIKR
notes: Fab, kappa light chain
fold increased binding affinity against the antibody mutants with heavy chain H:APFF ALTH [24]: ~10 fold | Kd [13]: ~1 nM
